# Target: influenza A virus nucleoprotein (NP), strain A/WSN/33, from infected MDCK cells (Influenza A virus A/WSN/1933 (H1N1), [35S]Met/Cys radiolabel)
# Experiment: pull-down
# Details: partners not purified
# influenza A virus nucleoprotein (NP), strain A/WSN/33, from infected MDCK cells (Influenza A virus A/WSN/1933 (H1N1), [35S]Met/Cys radiolabel), sequence (P15682 whole entry): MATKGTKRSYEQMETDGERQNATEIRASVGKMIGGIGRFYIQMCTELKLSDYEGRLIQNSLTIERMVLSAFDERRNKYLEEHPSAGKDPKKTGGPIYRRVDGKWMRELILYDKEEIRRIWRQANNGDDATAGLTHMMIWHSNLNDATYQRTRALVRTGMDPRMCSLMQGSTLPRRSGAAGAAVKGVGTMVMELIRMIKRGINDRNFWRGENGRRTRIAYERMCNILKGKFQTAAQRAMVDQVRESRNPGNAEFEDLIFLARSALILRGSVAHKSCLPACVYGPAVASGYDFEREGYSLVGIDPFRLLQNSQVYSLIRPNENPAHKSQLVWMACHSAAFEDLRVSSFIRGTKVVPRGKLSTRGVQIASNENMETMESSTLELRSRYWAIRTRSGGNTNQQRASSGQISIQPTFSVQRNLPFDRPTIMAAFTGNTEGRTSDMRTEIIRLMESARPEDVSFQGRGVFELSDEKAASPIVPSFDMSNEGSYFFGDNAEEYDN
row,Binder,binding result
1,"VHH62 displayed on S. aureus RN4220 (VHH, also called anti-NP-VHH3) VHH: QVQLVESGGGLVQPGGSLRLSCAASGFTLDGYAIGWFRQAPGKEREGVSCISSSGKSTNYADSVKGRFTISRDNQQNTVYLQMNSLKPEDTAVYYCAATVGLFCVGGTYGMDYWGKGTLVKMSS",binds
2,"VHH52.1 displayed on S. aureus RN4220 (VHH, also called anti-NP-VHH6) VHH: QLQLVESGGGLVQAGGSLRLSCAASGSTFSNYAMGWFRQAPGKEREFVASIRWIGGSTRYADSVKGRFTTSRDNAKNALYLQMNSLKTEDTAVYYCAASLGYSASYASGYDYWGQGTQVTVSS",binds
3,"VHH54.1 displayed on S. aureus RN4220 (VHH, also called anti-NP-VHH4) VHH: QVQLVESGGGLVQAGASLRLSCATSGRTLSGYAMGWFRQAPGKERELTAAISWSGISTYYTDSVKGRFTISRDNAKNTVYLQMNSLNSEDTGVYYCVADVGWPLRADRGSWGQGTQVTISS",binds
4,"D4 displayed on S. aureus RN4220 (VHH, also called anti-NP-VHH5) VHH: QLQLVETGGGLVQSGGSLRLSCAASGFTLGSYAIGWYRQAPGKERERVSCISSSGISTNYADPVKGRFTISRDNAKNTVYLQMDSLKPEDTAVYYCAADSFFCLGPNMDYWGKGTLVIVSS",binds
5,C8 displayed on S. aureus RN4220 (VHH) VHH: QVHSWSLGGGLVQSGGSLTLSCAASGFTFTNAYMSWVRQGPGKEPEWVSGINARGVGTRYADFVKGRFTISRDNAKTILYLQMNSLKPEDTALYYCASDFGPSGGRWDPPRRRGQGTWVTVSS,binds
6,"VHH52 displayed on S. aureus RN4220 (VHH, also called anti-NP-VHH1) VHH: QVQLQESGGGLVQAGGSLRLTCALSERTSTSYAQGWFRQPPGKEREFVASLRTHDGNTHYTDSVKGRFTISRDNAENTLYLQMNSLKTEDTAVYYCAASLGYSGAYASGYDYWGQGTQVTVSS",binds
7,"VHH54 displayed on S. aureus RN4220 (VHH, also called anti-NP-VHH2) VHH: QVQLQESGGGLVQAGGSLRLSCAASGRTLSSYAMGWFRQAPGKERELVSAISWSGLSTYYEDSVKGRFTISRDNAKNTMYLQMNSLKPEDTAIYYCAADIGWPLRADSGSWGQGTQVTVSS",binds

# Source: publication PMC5535997 (International Journal of Molecular Sciences, 2017)
